Data taken from patent US20240150473A1, “MODULATION OF WNT SIGNALING IN GASTROINTESTINAL DISORDERS” (Surrozen Operating, Inc., priority 2021, published 2024).

T1: Lrp6E3E4 domain (Homo sapiens, UniProt O75581)
T1 sequence (O75581 631-1244 limits assumed): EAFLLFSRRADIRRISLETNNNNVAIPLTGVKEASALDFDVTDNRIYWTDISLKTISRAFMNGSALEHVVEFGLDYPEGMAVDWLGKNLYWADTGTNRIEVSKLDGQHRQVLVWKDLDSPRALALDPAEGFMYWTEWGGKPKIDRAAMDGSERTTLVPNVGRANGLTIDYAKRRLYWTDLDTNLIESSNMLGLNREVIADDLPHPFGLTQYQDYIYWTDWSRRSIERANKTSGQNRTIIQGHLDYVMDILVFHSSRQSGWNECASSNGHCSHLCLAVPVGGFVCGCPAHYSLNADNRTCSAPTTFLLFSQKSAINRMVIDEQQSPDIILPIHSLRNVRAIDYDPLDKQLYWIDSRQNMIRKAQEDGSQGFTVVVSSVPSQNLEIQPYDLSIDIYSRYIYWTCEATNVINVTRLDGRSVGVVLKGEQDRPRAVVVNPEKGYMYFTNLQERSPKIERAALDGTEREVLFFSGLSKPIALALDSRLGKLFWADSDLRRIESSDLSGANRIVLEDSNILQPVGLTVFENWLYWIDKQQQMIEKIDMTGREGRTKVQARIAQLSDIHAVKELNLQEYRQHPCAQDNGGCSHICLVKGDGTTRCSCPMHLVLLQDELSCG


How the values were obtained:
[1] = test system: colon tissue markers (ZO-1, Ki67, Axin2, Cdkn3, S100A9, CD45); experiment: RNA in situ hybridization and immunohistochemistry/immunofluorescence of colon tissue, DSS model; type: in vivo, mouse; settings: day 10 of the DSS model
Source text: Expression of mRNA was detected by RNAscope in situ hybridization (ACD Bio). RNAscope probes used are listed below. For colorimetric visualization, standard RNAscope® 2.5 HD Assay-Red protocol (www.acdbio.com) was followed, and images were acquired on a Leica DMi8 microscope equipped with a DFC7000T color camera. For fluorescent RNAscope in situ hybridization, standard RNAscope Multiplex Fluorescent Reagent Kit v2 Assay protocol was followed (ACD Bio Document #323100-USM) and coupled with the TSA Plus Cyanine 3 and 5 Systems. Fluorescent images were acquired with a Leica Thunder imaging system.
In brief, five-micron thick formalin fixed paraffin embedded tissue sections on slides were deparaffinized followed by citrate buffer (pH 6) antigen retrieval in a steamer. Slides were then washed thoroughly in tap water followed by 1× wash in PBST. Subsequently, tissue sections were blocked with serum free protein block (Agilent, X090930-2) for one hour at room temperature followed by incubation in primary antibodies. After primary antibody incubation, tissue sections were washed in 0.1% TX-100 in PBS (PBST) at least three times followed by incubation in secondary antibody. Afterwards, tissue sections were washed with PBST, and coverslips were mounted with Vectashield Vibrance antifade mounting medium with DAPI (Vector Laboratories, H-1800).

[2] = test system: DSS induced acute colitis in C57BL6/J mice; experiment: DSS induced acute colitis model; type: in vivo, mouse; settings: IP twice weekly or daily starting on day 4 of DSS
Protocol: 7- to 8-week-old female C57BL6/J mice were fed with 4% (wt/vol) Dextran Sulfate Sodium (DSS, MP Biomedicals, molecular weight 36-50 kDa, Ref #160110) in drinking water from day 1 to day 7 to induce colitis and were switched to 1% DSS from day 8. […] Animals were terminated on day 10, allowing a 6-day course of protein treatment, and the colon was harvested for histology and RT-qPCR. […] The disease activity index (DAI) was calculated based on the average score of weight loss, stool consistency and the degree of intestinal bleeding (Wirtz Stefan et al., 2017). Scoring system by grading was on a scale of 0 to 4 using the following parameters: loss of weight (0, 0-1%; 1, 1-6%; 2, 6-12%; 3, 12-18%; 4, >18%), stool consistency (0, normal; 1, soft but still formed; 2, soft; 3, very soft, wet; 4, watery diarrhea) and intestine bleeding (0-1, negative hemoccult; 2, positive hemoccult; 3, blood traces in stool visible; 4, gross rectal bleeding).
Small intestine and colon were extracted and, after removing fecal content, weighted and length measured. The desired small intestine segments (duodenum, jejunum, ileum) and colon segments (ascending, transverse and descending colon) were cut out and fixed directly in 10% neutral buffered formalin (NBF) overnight. Tissues were then transferred to 70% ethanol before paraffin embedding. Paraffin tissue blocks were then sectioned to […] thickness and stained with hematoxylin and eosin (H&E) for histology analysis. Pathology reading was performed by an independent pathologist.
[…] Groups of mice were either untreated, treated with an isotype control antibody (anti-GFP), or treated with the indicated engineered Wnt agonist once on day 4 or twice on day 4 and 7. […]
The 123 mice total were grouped: (Day3=13, day4=13, day5=26, day6=24, day7=26, day10=21), with 91 used for histology endpoints, and 21 for scRNA-seq (group eliminated because of machinery). Daily food intake, BW, fecal score, and occult blood were measured. […]

Lrp6E3E4 domain = target: T1, Lrp6E3E4 domain; experiment: Bio-layer interferometry (Octet) binding kinetics of VHH26 constructs; settings: 1:1 binding model
Protocol: These six humanized VHH26 variants H1 to H6 and the parental VHH26 were transiently expressed in Expi293 cells (at 80 mL scale) with a C-terminal hexa-histidine tag. Proteins were purified using His-Complete resin (Roche, USA) following standard procedures. Expression levels and homogeneity of VHH26 and its humanized variants were analyzed by SDS-PAGE and SEC (size-exclusion chromatography). […] Biotinylated LRP6E3E4 diluted to 50 nM in the running buffer (PBS, 0.05% Tween-20, 0.5% BSA, pH 7.2) were captured to the SA biosensor followed by dipping into wells containing the indicated VHH26 proteins at different concentrations in running buffer or into a well with only running buffer as a reference channel. KD for each binder was calculated by Octet System software, based on fitting to a 1:1 binding model. Kinetics values (Kon, Koff, KD) from each experiment was calculated from seven technical replicates of different concentrations of the molecule tested with Octet Data Analysis 9.0 (PALL ForteBio, Fremont, CA).
Central fractions of each of these peaks were examined by Octect-BLI for their ability interact with Lrp6. Kinetics parameters such as kon, koff, and KD for interaction between VHH26 constructs and Lrp6E3E4 domain are listed in Table 2. Analyses of these parameters reveal that the binding affinity towards Lrp6 is least affected in the case of the VHH26-H5 humanized variant compared to the parent VHH26 (Table 2; FIG. 3B).

[3] = SEC fraction C1/G1 (parental D3)
[4] = SEC fraction C3/G3 (parental D3)

koff (Lrp6E3E4 domain; [3])	kon (Lrp6E3E4 domain; [3])	koff (Lrp6E3E4 domain; [4])	kon (Lrp6E3E4 domain; [4])	Molecule	Ki67 expression in duodenum and colon [1]	repair of damaged colon epithelium / colon histology [2]
				RSPO2: R-spondin 2, ligand that amplifies WNT signals (protein, UniProt Q6UXX9 22-243, looked up) R-spondin-2: QGNRWRRSKRASYVSNPICKGCLSCSKDNGCSRCQQKLFFFLRREGMRQYGECLHSCPSGYYGHRAPDMNRCARCRIENCDSCFSKDFCTKCKVGFYLHRGRCFDECPDGFAPLEETMECVEGCEVGHWSEWGTCSRNNRTCGFKWGLETRTRQIVKKPVKDTILCPTIAESRRCKMTMRHCPGGKRTPKAKEKRNKKKKRKLIERAQEQHSVFLATDRANQ	expansion of Ki67 expression	less significant as compared to the effect of R2M3-26
9.51E−02	1.44E+05	5.56E−03	2.90E+04	VHH26-H4: humanized variant of LRP6 binding VHH26, SEQ ID NO: 22 [VHH26-H4] (protein, VHH26_H4) VHH: EVQLVESGGGLVQPGGSLRLSCAGSGRIFAIYDIAWYRQAPGKGRELVAMIRPVVTEIDYADSVKGRFTISRDNSKNTVYLQMNSLRAEDTAVYYCNAKRPWGSRDEYWGQGTTVTVSS		
6.53E−02	1.48E+05	6.84E−02	2.44E+05	VHH26-H2: humanized variant of LRP6 binding VHH26, SEQ ID NO: 20 (protein, VHH26_H2) VHH: EVQLVESGGGLVQPGGSLRLSCAGSGRIFAIYDIAWYRQAPGKGLEWVAMIRPVVTEIDYADSVKGRFTISRDNSKNTVYLQMNSLRAEDTAVYYCNAKRPWGSRDEYWGQGTTVTVSS		
		3.98E−03	1.42E+04	VHH26-H1: humanized variant of LRP6 binding VHH26, SEQ ID NO: 19 (protein, VHH26_H1) VHH: EVQLLESGGGLVQPGGSLRLSCAASGRIFAIYDIAWVRQAPGKGLEWVSMIRPVVTEIDYADSVKGRFTISRDNSKNTLYLQMNSLRAEDTAVYYCAKKRPWGSRDEYWGQGTTVTVSS		
3.11E−02	4.52E+04	8.36E−03	1.72E+04	VHH26-H6: humanized variant of LRP6 binding VHH26, SEQ ID NO: 24 [VHH26-H6] (protein, VHH26_H6) VHH: EVQLVESGGGLVQPGGSLRLSCAGSGRIFAIYDIAWYRQAPGKGRELVAMIRPVVTEIDYADSVKGRFTISRDNSKKTVYLQMNSLRAEDTAVYYCNAKRPWGSRDEYWGQGTTVTVSS		
5.22E−02	1.63E+04	7.75E−03	1.84E+04	VHH26-H3: humanized variant of LRP6 binding VHH26, SEQ ID NO: 21 (protein, VHH26_H3) VHH: EVQLVESGGGLVQPGGSLRLSCAGSGRIFAIYDIAWYRQAPGKGREWVAMIRPVVTEIDYADSVKGRFTISRDNSKNTVYLQMNSLRAEDTAVYYCNAKRPWGSRDEYWGQGTTVTVSS		
1.77E−02	4.28E+05	1.47E−02	1.35E+05	VHH26-H5: humanized variant of LRP6 binding VHH26, SEQ ID NO: 23 (protein, VHH26_H5) VHH: EVQLVESGGGLVQPGGSLRLSCAGSGRIFAIYDIAWYRQAPGKGREWVAMIRPVVTEIDYADSVKGRFTISRDNSKKTVYLQMNSLRAEDTAVYYCNAKRPWGSRDEYWGQGTTVTVSS		
1.77E−02	8.10E+05	1.82E−02	1.05E+06	VHH26 (parental): parental camelid LRP6 binding VHH, SEQ ID NO: 25 (protein, VHH26 (parental)) VHH: DVQLVESGGGLVQAGGSLRLACAGSGRIFAIYDIAWYRHPPGNQRELVAMIRPVVTEIDYADSVKGRFTISRNNAMKTVYLQMNNLKPEDTAVYYCNAKRPWGSRDEYWGQGTQVTVSS		
